The results in this text go back to patent US20120115880A1.

The assay has as its target p53 (endogenous wild-type p53 of human retinoblastoma cells and human fetal retinal cells) (human) (UniProt P04637). Nature of the assay: cell-based or functional assay.

p53 (endogenous wild-type p53 of human retinoblastoma cells and human fetal retinal cells) (human), sequence (P04637 whole entry): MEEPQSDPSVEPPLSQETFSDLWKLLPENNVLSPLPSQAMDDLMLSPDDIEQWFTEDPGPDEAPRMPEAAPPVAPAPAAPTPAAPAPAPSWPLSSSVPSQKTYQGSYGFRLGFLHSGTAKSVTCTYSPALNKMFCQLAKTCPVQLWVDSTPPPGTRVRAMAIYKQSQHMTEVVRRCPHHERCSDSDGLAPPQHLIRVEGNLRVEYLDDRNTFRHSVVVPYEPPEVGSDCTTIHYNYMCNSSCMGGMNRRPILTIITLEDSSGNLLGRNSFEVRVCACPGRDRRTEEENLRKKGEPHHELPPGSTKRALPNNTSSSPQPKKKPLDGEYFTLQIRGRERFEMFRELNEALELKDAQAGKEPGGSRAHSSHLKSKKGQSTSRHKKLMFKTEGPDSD

“MDMX (ectopically expressed from the FLAG-tagged MDMX cDNA)” displayed a luciferase activity of the p53 reporter construct PG13 in retinoblastoma (Y79) cells of 19 fold.
